Data taken from PMC3820547, “An Extended Network of Genomic Maintenance in the Archaeon Pyrococcus abyssi Highlights Unexpected Associations between Eucaryotic Homologs” (PLoS ONE, 2013).

Target: T1, Mre11/Rad50 complex (Q9UZC9, Q9UZC8), HIS fusion (Pyrococcus abyssi, UniProt Q9UZC9 1-415; Q9UZC8 1-880)
T1 construct: Mre11 of Pyrococcus abyssi, full length, in the FL complex; Rad50 of Pyrococcus abyssi, full length, in the FL complex; also called Mre11 complex; source: E. coli Rosetta, purified on magnetic beads (details in Materials S1); not shown: His tag, N-terminal, kept
T1 sequence (Q9UZC9 whole entry, chain 1 of 2, the tested form may be a part): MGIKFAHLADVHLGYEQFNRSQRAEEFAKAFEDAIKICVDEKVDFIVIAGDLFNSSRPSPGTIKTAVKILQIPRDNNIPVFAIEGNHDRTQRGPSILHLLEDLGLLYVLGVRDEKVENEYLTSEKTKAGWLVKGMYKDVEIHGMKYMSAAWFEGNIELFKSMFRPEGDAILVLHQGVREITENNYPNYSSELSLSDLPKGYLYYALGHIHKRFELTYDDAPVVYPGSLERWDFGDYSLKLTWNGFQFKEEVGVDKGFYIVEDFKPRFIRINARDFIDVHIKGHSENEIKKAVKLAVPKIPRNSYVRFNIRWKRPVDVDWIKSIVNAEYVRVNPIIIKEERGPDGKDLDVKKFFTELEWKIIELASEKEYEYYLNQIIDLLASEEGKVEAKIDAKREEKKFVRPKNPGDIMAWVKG
T1 sequence (Q9UZC8 whole entry, chain 2 of 2, the tested form may be a part): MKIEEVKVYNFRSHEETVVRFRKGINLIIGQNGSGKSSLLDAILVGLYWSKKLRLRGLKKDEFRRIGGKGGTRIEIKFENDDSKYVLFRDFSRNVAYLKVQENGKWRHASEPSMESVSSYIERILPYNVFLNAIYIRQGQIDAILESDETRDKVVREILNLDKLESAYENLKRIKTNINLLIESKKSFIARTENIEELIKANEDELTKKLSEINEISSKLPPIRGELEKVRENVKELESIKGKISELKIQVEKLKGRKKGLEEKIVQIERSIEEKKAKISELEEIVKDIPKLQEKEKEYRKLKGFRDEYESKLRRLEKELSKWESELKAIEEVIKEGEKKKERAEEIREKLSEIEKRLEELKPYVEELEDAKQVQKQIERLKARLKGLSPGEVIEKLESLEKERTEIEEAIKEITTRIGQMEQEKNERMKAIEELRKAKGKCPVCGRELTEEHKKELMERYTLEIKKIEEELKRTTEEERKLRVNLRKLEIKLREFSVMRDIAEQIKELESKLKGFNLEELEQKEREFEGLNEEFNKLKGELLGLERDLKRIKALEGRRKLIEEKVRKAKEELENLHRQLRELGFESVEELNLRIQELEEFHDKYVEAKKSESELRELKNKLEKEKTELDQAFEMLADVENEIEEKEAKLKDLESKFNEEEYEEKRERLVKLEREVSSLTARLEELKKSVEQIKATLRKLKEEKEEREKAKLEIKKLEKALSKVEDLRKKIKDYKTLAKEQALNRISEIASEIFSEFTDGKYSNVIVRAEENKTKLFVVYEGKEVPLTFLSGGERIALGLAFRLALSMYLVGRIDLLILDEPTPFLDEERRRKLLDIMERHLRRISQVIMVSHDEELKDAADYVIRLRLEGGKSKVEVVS
Assay: pull-down; 10 ug HIS fusion Mre11/Rad50 immobilised on Co2+ magnetic beads, with or without DNase I treatment, incubated with 0.5 ug PCNA 1 h at room temperature in TrisHCl 20 mM pH 8, NaCl 150 mM, DTT 1 mM with BSA; Western blot with anti-PCNA and anti-HisTag
Details: both partners purified

B1: purified PCNA (prey of the Mre11/Rad50 pull-down) (natural protein, Pyrococcus abyssi, UniProt Q9UYX8 1-249, looked up)
chain: MPFEIVFEGAKEFAQLIETASRLIDEAAFKVTEEGISMRAMDPSRVVLIDLNLPASIFSKYEVDGEETIGVNMDHLKKVLKRGKAKETLILRKGEENFLEISLQGTATRTFKLPLIDVEEIEVDLPELPFTAKVVILGDVIKEAVKDASLVSDSMKFIAKENEFTMRAEGETQEVEVKLTLEDEGLLDIEVQEETKSAYGISYLSDMVKGLGKADEVTIKFGNEMPMQMEYYIRDEGRLIFLLAPRVEE
notes: it was the prey on Co2+ beads and was detected with anti-PCNA, so it is kept apart from m1; source: purified
Does B1 bind?
Result: binds
